From the supplement of paper PMC6757056
± gives the standard deviation of the averaged measurements.

B1: library; a variant is named by its letters at N, in order (parent)
chain: GCUGUCACCGGUGUAUUACCCUAGUGGUCGACCGGUCUGAUGAGUCUNNNNNNAGACGAAACAGC

What was measured:
[1] = variants of: B1; assay: FACS-Seq fitted mean relative fluorescence mCherry/BFP without ligand (log10 relative fluorescence); ligand: hypoxanthine (xanthine aptamer); higher = higher reporter protein expression; conditions: HEK293T, ligand present: no
Procedure: (§1)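 Hammerhead (sTRSV) ribozyme switch libraries with a ligand aptamer grafted on stem I and a randomized N4-6 loop II, cloned into the 3' UTR of mCherry and transiently transfected into HEK293T cells; RNA-Seq 72 h post transfection with ligand added 1 h before transfection; RNA read count / plasmid DNA read count normalized to the non-cleaving sTRSVctl (x100), log10; sequences with >100 DNA reads. FACS-Seq: lentiviral library sorted into 6 bins after 48 h ligand, log-normal fit mean of mCherry/BFP scaled to controls. Printed sequences are partial switch sequences.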

[2] = variants of: B1; assay: normalized RNA/DNA level with ligand (relative to sTRSVctl = 100) (log10 (% of sTRSVctl)); ligand: hypoxanthine (xanthine aptamer); higher = less ribozyme self-cleavage, higher mRNA level; conditions: ligand concentration (+) RNA-Seq: 5 mM, HEK293T, reporter: mCherry (pCS4076), ligand present: yes
Procedure: as §1

[3] = variants of: B1; assay: normalized RNA/DNA level without ligand (relative to sTRSVctl = 100) (log10 (% of sTRSVctl)); ligand: hypoxanthine (xanthine aptamer); higher = less ribozyme self-cleavage, higher mRNA level; conditions: HEK293T, reporter: mCherry (pCS4076), ligand present: no
Procedure: as §1

[4] = variants of: B1; assay: FACS-Seq fitted mean relative fluorescence mCherry/BFP with ligand (log10 relative fluorescence); ligand: hypoxanthine (xanthine aptamer); ligand concentration (+) FACS-Seq: 5 mM; higher = higher reporter protein expression; conditions: HEK293T, ligand present: yes
Procedure: as §1

Variant	FACS-Seq fitted mean (log10) [1]	normalized RNA/DNA level with ligand (log10) [2]	normalized RNA/DNA level without ligand (log10) [3]	FACS-Seq fitted mean (log10) [4]
GCUGUCACCGGUGUAUUACCCUAGUGGUCGACCGGUCUGAUGAGUCUCACACUAGACGAAACAGC [CACACU]	0.146 ± 0.034	1.953 ± 0.0082	1.87 ± 0.036	0.266 ± 0.0029
GCUGUCACCGGUGUAUUACCCUAGUGGUCGACCGGUCUGAUGAGUCUUACACUAGACGAAACAGC [UACACU]	-0.295 ± 0.069	1.911 ± 0.006	1.9 ± 0.0044	-0.34 ± 0.0052
GCUGUCACCGGUGUAUUACCCUAGUGGUCGACCGGUCUGAUGAGUCUGACAGAAGACGAAACAGC [GACAGA]	0.4408 ± 0.00062	1.91 ± 0.038	1.65 ± 0.035	0.594 ± 0.088
GCUGUCACCGGUGUAUUACCCUAGUGGUCGACCGGUCUGAUGAGUCUUACAGAAGACGAAACAGC [UACAGA]	0.0904 ± 0.019	1.908 ± 0.018	1.54 ± 0.02	0.383 ± 0.04
GCUGUCACCGGUGUAUUACCCUAGUGGUCGACCGGUCUGAUGAGUCUAACAGAAGACGAAACAGC [AACAGA]	0.273 ± 0.058	1.907 ± 0.0091	1.642 ± 0.0026	0.322 ± 0.091
GCUGUCACCGGUGUAUUACCCUAGUGGUCGACCGGUCUGAUGAGUCUGACAGCAGACGAAACAGC [GACAGC]	0.379 ± 0.028	1.965 ± 0.007	1.74 ± 0.084	0.554 ± 0.047
GCUGUCACCGGUGUAUUACCCUAGUGGUCGACCGGUCUGAUGAGUCUUACAGCAGACGAAACAGC [UACAGC]	0.821 ± 0.21	1.96 ± 0.019	1.898 ± 0.013	0.655 ± 0.12
GCUGUCACCGGUGUAUUACCCUAGUGGUCGACCGGUCUGAUGAGUCUGACAGGAGACGAAACAGC [GACAGG]	-0.206 ± 0.16	1.765 ± 0.012	1.27 ± 0.033	-0.557 ± 0.034
GCUGUCACCGGUGUAUUACCCUAGUGGUCGACCGGUCUGAUGAGUCUUACAGGAGACGAAACAGC [UACAGG]	0.231 ± 0.044	1.838 ± 0.014	1.41 ± 0.035	0.661 ± 0.032
GCUGUCACCGGUGUAUUACCCUAGUGGUCGACCGGUCUGAUGAGUCUAACAGGAGACGAAACAGC [AACAGG]	0.1 ± 0.034	1.76 ± 0.042	1.291 ± 0.0056	0.57 ± 0.031
GCUGUCACCGGUGUAUUACCCUAGUGGUCGACCGGUCUGAUGAGUCUGACAGUAGACGAAACAGC [GACAGU]	-0.268 ± 0.11	1.926 ± 0.0025	1.8 ± 0.045	0.146 ± 0.025
